Laboratory results taken from patent US20240317834A1, “COMPOSITIONS AND METHODS FOR NEUROLOGICAL DISEASES” (CODA BIOTHERAPEUTICS, INC., priority 2020, published 2024).

System: Lenti-X 293T cells
Assay: YFP fluorescence quenching anion reporter plate reader assay of engineered receptors stimulated with acetylcholine or a non-native ligand
Assay type: cell-based
Settings: for percent quench of YFP fluorescence, 30 nM TC-6683: TC-6683 30 nM; for percent quench of YFP fluorescence, 300 nM TC-6683: TC-6683 300 nM; for percent quench of YFP fluorescence, 3 uM TC-6683: TC-6683 3 uM; for percent quench of YFP fluorescence, 30 uM TC-6683: TC-6683 30 uM; for percent quench of YFP fluorescence, 100 uM TC-6683: TC-6683 100 uM; for percent quench of YFP fluorescence, 10 uM ach: acetylcholine 10 uM; for percent quench of YFP fluorescence, 100 uM ach: acetylcholine 100 uM; for percent quench of YFP fluorescence, 1 mM ach: acetylcholine 1 mM; for percent quench of YFP fluorescence, 3 mM ach: acetylcholine 3 mM
How it was run: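 YFP quench was followed for about 1 min 43 s after ligand delivered in iodide-based ECS, pH 7.2. Values are end-of-read fluorescence (last 10 s) divided by the pre-ligand baseline (15 s). Cells were LX293T, transfected with receptor DNA a day before the assay.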

B1: CODA535: engineered chimeric LGIC receptor, L131T, S172D in SEQ ID NO: 33 (protein)
chain: MRCSPGGVWLALAASLLHVSLQGEFQRKLYKELVKNYNPLERPVANDSQPLTVYFSLSLLQIMDVDEKNQVLTTNIWLQMSWTDHYLQWNVSEYPGVKTVRFPDGQIWKPDILLYNSADERFDATFHTNVTVNSSGHCQYLPPGIFKSSCPMDLKNFPMDVQTCKLKFGSWDYGGWSLDLQMQEADISGYIPNGEWDLVGIPGKRSERFYECCKEPYPDVTFTVTMRRRMGYYLIQMYIPSLLIVILSWISFWINMDAAPARVGLGITTVLTMTTQSSGSRASLPKVSYVKAIDIWMAVCLLFVFSALLEYAAVNFVSRQHKELLRFRRKRRHHKSPMLNLFQEDEAGEGRFNFSAYGMGPACLQAKDGISVKGANNSNTTNPPPAPSKSPEEMRKLFIQRAKKIDKISRIGFPMAFLIFNMFYWIIYKIVRREDVHNQ
modifications: synthetic sequence of chimeric LGIC
YFP fluorescence quenching using CNL001 (1 nM CNL001, first column): 8.736%
YFP fluorescence quenching using CNL001 (1 nM CNL001, second column): 24.572%
YFP fluorescence quenching using CNL001 (10 nM CNL001, first column): 60.552%
YFP fluorescence quenching using CNL001 (10 nM CNL001, second column): 63.09%
YFP fluorescence quenching using Facinicline (30 nM fac): −21.36
YFP fluorescence quenching using CNL001 (50 nM CNL001, first column): 73.242%
YFP fluorescence quenching using CNL001 (50 nM CNL001, second column): 73.889%
YFP fluorescence quenching using ABT-126 (50 nM abt): −11.09%
YFP fluorescence quenching using CNL001 (100 nM CNL001, first column): 76.147%
YFP fluorescence quenching using CNL001 (100 nM CNL001, second column): 76.21%
YFP fluorescence quenching using CNL002 (100 nM CNL002): 1.23%
YFP fluorescence quenching using ABT-126 (100 nM abt): −10.37%
YFP fluorescence quenching using AZD-0328 (100 nM azd0328): −7.02%
YFP fluorescence quenching using ABT-126 (300 nM abt): −4%
YFP fluorescence quenching using AZD-0328 (300 nM azd0328): −0.48%
YFP fluorescence quenching using Facinicline (300 nM fac): 4.17
YFP fluorescence quenching using CNL001 (1 uM CNL001, first column): 78.988%
YFP fluorescence quenching using CNL001 (1 uM CNL001, second column): 78.818%
YFP fluorescence quenching using CNL002 (1 uM CNL002): 35.77%
YFP fluorescence quenching using ABT-126 (1 uM abt): 4.05%
YFP fluorescence quenching using TC-6987 (1 uM tc6987): −21.8
YFP fluorescence quenching using TC-6987 (10 uM tc6987): −27.08
YFP fluorescence quenching using CNL002 (30 uM CNL002): 68.29%
YFP fluorescence quenching using AZD-0328 (30 uM azd0328): 70.16%
YFP fluorescence quenching using Facinicline (30 uM fac): 65.94
YFP fluorescence quenching using TC-6987 (500 uM tc6987): −21.56
percent quench of YFP fluorescence, 30 nM TC-6683: −29.362%
percent quench of YFP fluorescence, 300 nM TC-6683: −28.954%
percent quench of YFP fluorescence, 3 uM TC-6683: −23.708%
percent quench of YFP fluorescence, 30 uM TC-6683: −23.431%
percent quench of YFP fluorescence, 100 uM TC-6683: −18.324%
percent quench of YFP fluorescence, 10 uM ach: −12.24%
percent quench of YFP fluorescence, 100 uM ach: −26.23%
percent quench of YFP fluorescence, 1 mM ach: −1.16%
percent quench of YFP fluorescence, 3 mM ach: 2.97%

B2: CODA807: engineered chimeric LGIC receptor, Y115D, L131E in SEQ ID NO: 33 (protein)
chain: MRCSPGGVWLALAASLLHVSLQGEFQRKLYKELVKNYNPLERPVANDSQPLTVYFSLSLLQIMDVDEKNQVLTTNIWLQMSWTDHYLQWNVSEYPGVKTVRFPDGQIWKPDILLDNSADERFDATFHTNVEVNSSGHCQYLPPGIFKSSCPMDLKNFPMDVQTCKLKFGSWSYGGWSLDLQMQEADISGYIPNGEWDLVGIPGKRSERFYECCKEPYPDVTFTVTMRRRMGYYLIQMYIPSLLIVILSWISFWINMDAAPARVGLGITTVLTMTTQSSGSRASLPKVSYVKAIDIWMAVCLLFVFSALLEYAAVNFVSRQHKELLRFRRKRRHHKSPMLNLFQEDEAGEGRFNFSAYGMGPACLQAKDGISVKGANNSNTTNPPPAPSKSPEEMRKLFIQRAKKIDKISRIGFPMAFLIFNMFYWIIYKIVRREDVHNQ
modifications: synthetic sequence of chimeric LGIC
YFP fluorescence quenching using CNL001 (1 nM CNL001, first column): 0.885%
YFP fluorescence quenching using CNL001 (1 nM CNL001, second column): −1.707%
YFP fluorescence quenching using TC-5619/Bradanicline (1 nM brd): −1.52%
YFP fluorescence quenching using TC-5619/Bradanicline (3 nM brd): −5.35%
YFP fluorescence quenching using CNL001 (10 nM CNL001, first column): −0.567%
YFP fluorescence quenching using CNL001 (10 nM CNL001, second column): 0.043%
YFP fluorescence quenching using TC-5619/Bradanicline (10 nM brd): −3.49%
YFP fluorescence quenching using TC-5619/Bradanicline (30 nM brd): −2.16%
YFP fluorescence quenching using Facinicline (30 nM fac): 45.76
YFP fluorescence quenching using CNL001 (50 nM CNL001, first column): 5.141%
YFP fluorescence quenching using CNL001 (50 nM CNL001, second column): 9.409%
YFP fluorescence quenching using ABT-126 (50 nM abt): −1.68%
YFP fluorescence quenching using CNL001 (100 nM CNL001, first column): 9.796%
YFP fluorescence quenching using CNL001 (100 nM CNL001, second column): 11.009%
YFP fluorescence quenching using CNL002 (100 nM CNL002): −5.71%
YFP fluorescence quenching using ABT-126 (100 nM abt): −2.25%
YFP fluorescence quenching using AZD-0328 (100 nM azd0328): 24.49%
YFP fluorescence quenching using TC-5619/Bradanicline (100 nM brd): 4.18%
YFP fluorescence quenching using Facinicline (100 nM fac): 63.92
YFP fluorescence quenching using ABT-126 (300 nM abt): −2.37%
YFP fluorescence quenching using AZD-0328 (300 nM azd0328): 45.34%
YFP fluorescence quenching using TC-5619/Bradanicline (300 nM brd): 70.2%
YFP fluorescence quenching using Facinicline (300 nM fac): 79.43
YFP fluorescence quenching using CNL001 (1 uM CNL001, first column): 27.914%
YFP fluorescence quenching using CNL001 (1 uM CNL001, second column): 29.109%
YFP fluorescence quenching using CNL002 (1 uM CNL002): 13.03%
YFP fluorescence quenching using ABT-126 (1 uM abt): 3.68%
YFP fluorescence quenching using TC-5619/Bradanicline (1 uM brd): 43.11%
YFP fluorescence quenching using TC-6987 (1 uM tc6987): 36.07
YFP fluorescence quenching using Facinicline (10 uM fac): 80.1
YFP fluorescence quenching using TC-6987 (10 uM tc6987): 31.35
YFP fluorescence quenching using CNL002 (30 uM CNL002): 25.2%
YFP fluorescence quenching using AZD-0328 (30 uM azd0328): 71.21%
YFP fluorescence quenching using Facinicline (30 uM fac): 84.91
YFP fluorescence quenching using TC-6987 (500 uM tc6987): 28.18
percent quench of YFP fluorescence, 30 nM TC-6683: −26.801%
percent quench of YFP fluorescence, 300 nM TC-6683: −25.363%
percent quench of YFP fluorescence, 3 uM TC-6683: −23.651%
percent quench of YFP fluorescence, 30 uM TC-6683: −26.235%
percent quench of YFP fluorescence, 100 uM TC-6683: −24.182%
percent quench of YFP fluorescence, 10 uM ach: 15.45%
percent quench of YFP fluorescence, 100 uM ach: 13.77%
percent quench of YFP fluorescence, 1 mM ach: 27.42%
percent quench of YFP fluorescence, 3 mM ach: 53.62%

B3: CODA805: engineered chimeric LGIC receptor, Y115D, S170T in SEQ ID NO: 33 (protein)
chain: MRCSPGGVWLALAASLLHVSLQGEFQRKLYKELVKNYNPLERPVANDSQPLTVYFSLSLLQIMDVDEKNQVLTTNIWLQMSWTDHYLQWNVSEYPGVKTVRFPDGQIWKPDILLDNSADERFDATFHTNVLVNSSGHCQYLPPGIFKSSCPMDLKNFPMDVQTCKLKFGTWSYGGWSLDLQMQEADISGYIPNGEWDLVGIPGKRSERFYECCKEPYPDVTFTVTMRRRMGYYLIQMYIPSLLIVILSWISFWINMDAAPARVGLGITTVLTMTTQSSGSRASLPKVSYVKAIDIWMAVCLLFVFSALLEYAAVNFVSRQHKELLRFRRKRRHHKSPMLNLFQEDEAGEGRFNFSAYGMGPACLQAKDGISVKGANNSNTTNPPPAPSKSPEEMRKLFIQRAKKIDKISRIGFPMAFLIFNMFYWIIYKIVRREDVHNQ
modifications: synthetic sequence of chimeric LGIC
YFP fluorescence quenching using CNL001 (1 nM CNL001, first column): −10.729%
YFP fluorescence quenching using CNL001 (1 nM CNL001, second column): −15.278%
YFP fluorescence quenching using TC-5619/Bradanicline (1 nM brd): −9.78%
YFP fluorescence quenching using TC-5619/Bradanicline (3 nM brd): −12.06%
YFP fluorescence quenching using CNL001 (10 nM CNL001, first column): −20.403%
YFP fluorescence quenching using CNL001 (10 nM CNL001, second column): −14.905%
YFP fluorescence quenching using TC-5619/Bradanicline (10 nM brd): −9.02%
YFP fluorescence quenching using TC-5619/Bradanicline (30 nM brd): −16.3%
YFP fluorescence quenching using Facinicline (30 nM fac): 38.08
YFP fluorescence quenching using CNL001 (50 nM CNL001, first column): −14.303%
YFP fluorescence quenching using CNL001 (50 nM CNL001, second column): −15.741%
YFP fluorescence quenching using ABT-126 (50 nM abt): −11.83%
YFP fluorescence quenching using CNL001 (100 nM CNL001, first column): −12.637%
YFP fluorescence quenching using CNL001 (100 nM CNL001, second column): −10.606%
YFP fluorescence quenching using CNL002 (100 nM CNL002): −18.17%
YFP fluorescence quenching using ABT-126 (100 nM abt): −11.5%
YFP fluorescence quenching using AZD-0328 (100 nM azd0328): −0.71%
YFP fluorescence quenching using TC-5619/Bradanicline (100 nM brd): −7.44%
YFP fluorescence quenching using Facinicline (100 nM fac): −14.37
YFP fluorescence quenching using ABT-126 (300 nM abt): −8.01%
YFP fluorescence quenching using AZD-0328 (300 nM azd0328): −1.73%
YFP fluorescence quenching using TC-5619/Bradanicline (300 nM brd): −10.93%
YFP fluorescence quenching using Facinicline (300 nM fac): 19.41
YFP fluorescence quenching using CNL001 (1 uM CNL001, first column): −13.535%
YFP fluorescence quenching using CNL001 (1 uM CNL001, second column): −11.335%
YFP fluorescence quenching using CNL002 (1 uM CNL002): −15.2%
YFP fluorescence quenching using ABT-126 (1 uM abt): −9.34%
YFP fluorescence quenching using TC-5619/Bradanicline (1 uM brd): −4.55%
YFP fluorescence quenching using TC-6987 (1 uM tc6987): 31.9
YFP fluorescence quenching using Facinicline (10 uM fac): 67.33
YFP fluorescence quenching using TC-6987 (10 uM tc6987): 25.54
YFP fluorescence quenching using CNL002 (30 uM CNL002): −14%
YFP fluorescence quenching using AZD-0328 (30 uM azd0328): 47.39%
YFP fluorescence quenching using Facinicline (30 uM fac): 79.67
YFP fluorescence quenching using TC-6987 (500 uM tc6987): 21.13
percent quench of YFP fluorescence, 10 uM ach: −0.46%
percent quench of YFP fluorescence, 100 uM ach: −4.93%
percent quench of YFP fluorescence, 1 mM ach: −11.18%
percent quench of YFP fluorescence, 3 mM ach: −3.53%
